{
  "source": "a protein production outcome set (Wang et al. 2014)",
  "assay": "label from the status in PepcDB records",
  "data": [
    {"sequence": "MTNWKPLVSVITPSYNARDYIEDTVHSVLDQSHPHWEMIIVDDCSTDGTRDILQQYEKIDERIHVVYLEENSGAAVARNKALERAQGRYVAFLDSDDKWKKDKLEKQLEFMMERSCAFSFTGYSLMAQDGTPLDKFIHAPESLTYDDALKNTIIGCLTVMIDREQTGQIQMPNIRTRQDLATWLSLLKKGFTAYGMNECLAEYRLVNNSISSNKWKAAKKTWFVYREIERLHFMKATWCFVQYAKNAVKKRLLEHHHHHH", "values": [
      {"measurement": "protein production", "value": "not failed"}
    ]},
    {"sequence": "MTPFPHASLFTPHSSRITPSLHLPVRLGNATFDTRHRTALTMSADRLEQLKTFHEEDPEDPFTRYALAQEHLKHDNASRALALFEELVETDPDYVGTYYHLGKLYERLDRTDDAIDTYAQGIEVAREEGTQKDLSELQDAKLKAEGVGFD", "values": [
      {"measurement": "protein production", "value": "failed"}
    ]},
    {"sequence": "MTPFTQSQRIKALFWLSLFHLLVIISSNYLVQLPITIFGFHTTWGAFSFPFIFLATDLTVRIFGAPLARRIIFAVMIPALLVSYVVSSLFYMGAWQGFAALANFNLFVARIAAASFMAYALGQILDVHVFNRLRQNRRWWLAPTASTLFGNISDTLAFFFIAFWRSPDAFMAGHWMEIALVDYCFKVLISIIFFLPMYGVLLNMLLKKLADKSEISPLPAS", "values": [
      {"measurement": "protein production", "value": "not failed"}
    ]},
    {"sequence": "MTPHPRLSIGLPVYNGEEYLAESLDALLGQTYENFELVISDNASTDGTRDICRRYAAQDSRIRYIRLPRNIGAAPNHNYVFTECRGELFKWASHDDLYARDLLRSCVAALDERPEVVLAHAGQAVIDGDGKVKVPYEYGLATDSPRAPERFRSLLFEPGGDDFYGVMRSAMLRRVKPHDSYHHADRTFVAEITLHGPFHQVPELLYFRRDHPTRAERANPSKRSRCVNLDPRRAGPLHPTPRLLAEYVWGFASAIGRAPLSSADRRACHRHLAAWLTSRVRPGVGERVEDRAPVDPDRLTVSVDDLVAGREGRQALEHHHHHH", "values": [
      {"measurement": "protein production", "value": "failed"}
    ]},
    {"sequence": "MTPIAQRDGQAIQLVGFDGDDTLWKSEDYYRTAEADFEAILSGYLDLGDSRMQQHLLAVERRNLKIFGYGAKGMTLSMIETAIELTEARIEARDIQRIVEIGRATLQHPVEVIAGVREAVAAIAADYAVVLITKGDLFHQEQKIEQSGLSDLFPRIEVVSEKDPQTYARVLSEFDLPAERFVMIGNSLRSDVEPVLAIGGWGIYTPYAVTWAHEQDHGVAADEPRLREVPDPSGWPAAVRALDAQAGRQQ", "values": [
      {"measurement": "protein production", "value": "not failed"}
    ]},
    {"sequence": "MTPIQDHPLRFALANELHARPFPISRAPCTVAYLAVKQPDAAVGRDRKADRAHLIDLLDRHGAPHPQPGATHYAGQIGRHWLKWESHTEFVTYTAFATGVSDRPFNPADFEVFPPDWLAAAPGQRVTSALLRVEEQLPEADIVAALADWFVPESLAVAHVLDRAAVAAGDFRIDPAGHMRFAVFVAPDTGERRIGRIIQRLCEIETYKAMSMLGFARVKALGPKLGELDSGLTGLMVKMTDGGHPAEDLLPQLLSTSAELETMAARSEFRLGATGAYEAIVNQRIASLREERFGGRQTFADFMLRRYEPAMRTVKSTERRLKRLSDRAIRAGDLLRTRVDVERSAQNQALLESMDRRADLALRLQHTVEGLSVVAVSYYAVSLVSAFLLPLSEWYGVDKKALIALVTLPVVGLVWLGIRRIRKKLH", "values": [
      {"measurement": "protein production", "value": "failed"}
    ]},
    {"sequence": "MTPPIAADYTAQAVSTDTIGYLHSTESGAGVDGPGMRFVFFVSGCQFRCLYCHNPDTWKLHNGRQVSVEQALSEVAPYARFLKFAGGVTISGGEPLMQHEFVGELFHEIKQRFGLHTALDTQGFLHERVSDAWFDDVDLVMLDIKHSDPEKYQALTGQPLQPTLDFALRLKRLRKKMWIRYVLVPGLTDGDADIEKLADFAASLGDVVERVEVLPFHQLGKDKWAQLGMEYQLNDTPIPTAEQAAHARALFASRGLKVTLEHHHHHH", "values": [
      {"measurement": "protein production", "value": "not failed"}
    ]},
    {"sequence": "MTPQFRALLVHLFTATGAVFAMLAMLAAVDAKWDLMFLWLVVAFFVDGLDGPMARRYHVKTYAPEFDGVLLDLIIDYLTYVFIPAFALFKSGLMDGWTGWLAIIIITFASAMYFADTRMKTKDNSFSGFPGCWNMVVLVIFALEPNFWVSLVLVTVLAVSMFLPLKFVHPVRTERWRAITLPMALAWTFFAGWAAWVGFHPESWAHWGLVVTSLYLIFAGIAQMVIPEKDTASPF", "values": [
      {"measurement": "protein production", "value": "failed"}
    ]},
    {"sequence": "MTPSKTTLVERCYKYIMSNEKNWSPYTVINRKSWVKNYIEPFFKDTKLIDINPVLIQTFINTTFNNCTFSSSKIRYRFISSVLKEAYRLREINENPCDFVKLPLEHHHHHH", "values": [
      {"measurement": "protein production", "value": "failed"}
    ]},
    {"sequence": "MTPVCAWIGSPGAKAQLSFAGRGHSTAKRRRGPAGEPAVPGEALPGARGSLKAHPKPWAAAMWARGCLHHIRVWFSWSQQGSGNGRSGWERLAREARGLWQLWCLPGTPNSSPLQTDM", "values": [
      {"measurement": "protein production", "value": "failed"}
    ]},
    {"sequence": "MTPYDIKDPDVRRRRFRPIPVRMLVPNVITLLAICAGLTSIRLSIEGRMSLAVYAIVFAAALDGIDGRIARMIKGQSKFGAELDSLADFVNFGVAPGLMLYFWQLHELGNAGWIAAMVFAISGGLRLARFNATMDDPNKPAFAANFFTGVPAPAGAITVLLPIYVAFLDLGRAPAAVTAAYTLLIAFLMVSRLPVFSGKTKRMRVPPELVLPAFVAVIVFIAILIAYPWHVLSIGTVLYLLALPLGYKSYRDQARAMDAATPAGGEISSPPSAPTLANLSEPPHDDDRPGRLH", "values": [
      {"measurement": "protein production", "value": "failed"}
    ]},
    {"sequence": "MTQAFSRVRFIMTQPSHPGNVGSAARAIKTMGFGELVLVAPRFPDMTAQPEAVALASGALDVLERAAVHDTLEEALAPVTLAFALTARVRDLGPPPCDIREAAGLARRHLDDTEAGVVAIVLGTERAGLTNAQIELCHRICHIPANPQYSSLNVAQALQLAAWELRYALLAGTGQPLLPASSAQQANPGAAPADGAAVQALLAHWEQALVAVGFLDPAHPKKLMPRMKHLLTRSALSRDEVDMLRGVCTAMIAPNRPK", "values": [
      {"measurement": "protein production", "value": "failed"}
    ]},
    {"sequence": "MTQFKLIGFDLDGTLVNSLPDLALSINSALKDVNLPQASENLVMTWIGNGADVLSQRAVDWACKQAEKELTEDEFKYFKRQFGFYYGENLCNISRLYPNVKETLEALKAQGYILAVVTNKPTKHVQPILTAFGIDHLFSEMLGGQSLPEIKPHPAPFYYLCGKFGLYPKQILFVGDSQNDIFAAHSAGCAVVGLTYGYNYNIPIAQSKPDWIFDDFADILKITQ", "values": [
      {"measurement": "protein production", "value": "not failed"}
    ]},
    {"sequence": "MTQIIKIDPLNPEIDKIKIAADVIRNGGTVAFPTETVYGLGANAFDGNACLKIFQAKNRPVDNPLIVHIADFNQLFEVAKDIPDKVLEIAQIVWPGPLTFVLKKTERVPKEVTAGLDTVAVRMPAHPIALQLIRESGVPIAAPSANLATRPSPTKAEDVIVDLNGRVDVIIDGGHTFFGVESTIINVTVEPPVLLRPGPFTIEELKKLFGEIVIPEFAQGKKEAEIALAPGMKYKHYAPNTRLLLVENRNIFKDVVSLLSKKYKVALLIPKELSKEFEGLQQIILGSDENLYEVARNLFDSFRELDKLNVDLGIMIGFPERGIGFAIMNRARKASGFSIIKAISDVYKYVNI", "values": [
      {"measurement": "protein production", "value": "not failed"}
    ]},
    {"sequence": "MTQLPPAIFLMGPTAAGKTDLAIELTKVLPCELISVDSALVYRGMDIGTAKPSRELLAQFPHRLIDILDPAESYSAADFRTDALAAMADITARGKIPLLVGGTMLYYKALLEGLADMPAADPQVRAELEEEAARLGWQALHDQLAAVDPESAARIHPNDPQRLTRALEVYRVSGLTMTAHRQRQLAQSTEAGASGRSQLPYTVANLAIAPANRQVLHQRIAQRFTQMLEQGFIDEVVALRSRSDLHAGLPSIRAVGYRQVWDHLDGKLTSAEMQERGIIATRQLAKRQFTWLRSWADLQWLDSLDCDNLPRALKYLGTISILSLEHHHHHH", "values": [
      {"measurement": "protein production", "value": "failed"}
    ]}
  ]
}
